Where two headings read alike, the source gives them in different places.
Columns and labels:
Experiment in all cases: MHC class I stabilization on T2-A24 cells, flow cytometry, 100 ug/mL peptide
HLA-A*24:02 [1] = target: T1, HLA-A*24:02 (human)
T1 construct: whole, on cells; MHC class I molecule, empty until peptide is added; detected with FITC anti-HLA-A24 antibody 17A10

HLA-A*02:01 [2] = target: T2, HLA-A*02:01 (human)
T2 construct: whole, on cells; MHC class I molecule, empty until peptide is added; detected with FITC anti-HLA-A02 antibody BB7.2

HLA-A*24:02 [3] = target: T1, HLA-A*24:02; remark: listed apart in the source
HLA-A*02:01 [4] = target: T2, HLA-A*02:01; remark: listed apart in the source

| Binder | MFI (solvent ratio) (HLA-A*24:02 [1]) | MFI (solvent ratio) (HLA-A*02:01 [2]) | MFI (solvent ratio) (HLA-A*24:02 [3]) | MFI (solvent ratio) (HLA-A*02:01 [4]) |
| --- | --- | --- | --- | --- |
| KVMYGSYSYMWSF [FAM83B-derived peptide F238_13] | ≥ 1.5 ratio to solvent | 1.2 ratio to solvent | 5.1 ratio to solvent |  |
| HLLTIKETI [FAM83B-derived peptide F131_9] | ≥ 1.5 ratio to solvent | 1.5 ratio to solvent | 2.4 ratio to solvent | ≥ 1.5 ratio to solvent |
| HGLEAYQEFLV [FAM83B-derived peptide F38_11] | ≥ 1.5 ratio to solvent | 2.5 ratio to solvent | 3.1 ratio to solvent | ≥ 1.5 ratio to solvent |
| MVQIITGQLV [FAM83B-derived peptide F257_10] |  | 1.9 ratio to solvent | 1.1 ratio to solvent | ≥ 1.5 ratio to solvent |
| FLAEEEINYI [FAM83B-derived peptide F55_10] |  | 3.5 ratio to solvent | 1.2 ratio to solvent | ≥ 1.5 ratio to solvent |
| NLDLGWPYV [FAM83B-derived peptide F103_9] |  | 2.6 ratio to solvent | 1.1 ratio to solvent | ≥ 1.5 ratio to solvent |
| FLQQRMPTL [FAM83B-derived peptide F476_9] | ≥ 1.5 ratio to solvent | 2 ratio to solvent | 2.6 ratio to solvent | ≥ 1.5 ratio to solvent |
| FLVQERVSDFL [FAM83B-derived peptide F46_11] | ≥ 1.5 ratio to solvent |  | 1.6 ratio to solvent |  |
| KVIALVMDI [FAM83B-derived peptide F148_9] | ≥ 1.5 ratio to solvent | 2.4 ratio to solvent | 1.6 ratio to solvent | ≥ 1.5 ratio to solvent |
| FLAEEEINYIL [FAM83B-derived peptide F55_11] |  | 3.6 ratio to solvent | 1 ratio to solvent | ≥ 1.5 ratio to solvent |
| VYILLDESNF [FAM83B-derived peptide F176_10] | ≥ 1.5 ratio to solvent | 1.2 ratio to solvent | 2.7 ratio to solvent |  |
| VMDIFTDVDIF [FAM83B-derived peptide F153_11] | ≥ 1.5 ratio to solvent | 0.9 ratio to solvent | 2 ratio to solvent |  |
| NYIEPHYKEW [FAM83B-derived peptide F18_10] | ≥ 1.5 ratio to solvent | 1 ratio to solvent | 3.2 ratio to solvent |  |
| SYQPNENKF (also called FAM83B peptide) [FAM83B-derived peptide SF_9] | ≥ 1.5 ratio to solvent | 1 ratio to solvent | 2.3 ratio to solvent |  |
| TLSSGTYWPV [FAM83B-derived peptide F86_10] |  | 3 ratio to solvent | 1 ratio to solvent | ≥ 1.5 ratio to solvent |
| FLLVDCQKVM [FAM83B-derived peptide F231_10] |  | 2 ratio to solvent | 1 ratio to solvent | ≥ 1.5 ratio to solvent |
| NYILKNVQKV [FAM83B-derived peptide F62_10] | ≥ 1.5 ratio to solvent | 2.9 ratio to solvent | 1.6 ratio to solvent | ≥ 1.5 ratio to solvent |
| KVIALVMDIF [FAM83B-derived peptide F148_10] | ≥ 1.5 ratio to solvent | 1.1 ratio to solvent | 2.6 ratio to solvent |  |
| LLDESNFNHFL [FAM83B-derived peptide F179_11] |  | 1.6 ratio to solvent | 1.1 ratio to solvent | ≥ 1.5 ratio to solvent |
| GLLGGTHIDLL [FAM83B-derived peptide F114_11] |  | 2.9 ratio to solvent | 1.1 ratio to solvent | ≥ 1.5 ratio to solvent |

| Binder | MFI (solvent ratio) (HLA-A*24:02 [1]) | MFI (solvent ratio) (HLA-A*02:01 [2]) | MFI (solvent ratio) (HLA-A*24:02 [3]) | MFI (solvent ratio) (HLA-A*02:01 [4]) |
| --- | --- | --- | --- | --- |
| VIALVMDIFT [FAM83B-derived peptide F149_10] | ≥ 1.5 ratio to solvent | 1.3 ratio to solvent | 2.1 ratio to solvent |  |
| PFCKIESSI [FAM83B-derived peptide F939_9] | ≥ 1.5 ratio to solvent | 0.9 ratio to solvent | 2.7 ratio to solvent |  |
| HYKEWYRVAI [FAM83B-derived peptide F23_10] | ≥ 1.5 ratio to solvent | 2 ratio to solvent | 3 ratio to solvent | ≥ 1.5 ratio to solvent |
| PLPESIPKL [FAM83B-derived peptide F594_9] | ≥ 1.5 ratio to solvent |  | 3.8 ratio to solvent |  |
| LYARSCVPSSF [FAM83B-derived peptide F276_11] | ≥ 1.5 ratio to solvent | 1.2 ratio to solvent | 3.4 ratio to solvent |  |
| WYRVAIDILI [FAM83B-derived peptide F27_10] | ≥ 1.5 ratio to solvent | 1.2 ratio to solvent | 3.2 ratio to solvent |  |
| SMVQIITGQLV [FAM83B-derived peptide F256_11] |  | 3.2 ratio to solvent | 1.1 ratio to solvent | ≥ 1.5 ratio to solvent |
| YILKNVQKV [FAM83B-derived peptide F63_9] |  | 3.3 ratio to solvent | 1 ratio to solvent | ≥ 1.5 ratio to solvent |
| RLCSSSDTLV [FAM83B-derived peptide F799_10] |  | 2.1 ratio to solvent | 1.2 ratio to solvent | ≥ 1.5 ratio to solvent |
| SYGRSSPLL [FAM83B-derived peptide F971_9] | ≥ 1.5 ratio to solvent | 1.1 ratio to solvent | 1.8 ratio to solvent |  |
| GWPYVMPGLL [FAM83B-derived peptide F107_10] | ≥ 1.5 ratio to solvent | 1 ratio to solvent | 2.7 ratio to solvent |  |
| SYFKNRGIYTL [FAM83B-derived peptide F335_11] | ≥ 1.5 ratio to solvent | 1 ratio to solvent | 2.3 ratio to solvent |  |
| ALVMDIFTDV [FAM83B-derived peptide F151_10] |  | 3.4 ratio to solvent | 1 ratio to solvent | ≥ 1.5 ratio to solvent |
| VMYGSYSYMW [FAM83B-derived peptide F239_10] | ≥ 1.5 ratio to solvent | 1.1 ratio to solvent | 2.2 ratio to solvent |  |
| TYQHSVSSLASV [FAM83B-derived peptide F305_12] | ≥ 1.5 ratio to solvent | 2 ratio to solvent | 3.1 ratio to solvent | ≥ 1.5 ratio to solvent |
| VMYGSYSYMWSF [FAM83B-derived peptide F239_12] | ≥ 1.5 ratio to solvent | 1.6 ratio to solvent | 4 ratio to solvent | ≥ 1.5 ratio to solvent |
| SFNGTDNHIRF [FAM83B-derived peptide F466_11] | ≥ 1.5 ratio to solvent | 1 ratio to solvent | 1.7 ratio to solvent |  |
| LVQERVSDFL [FAM83B-derived peptide F47_10] | ≥ 1.5 ratio to solvent | 1.1 ratio to solvent | 1.5 ratio to solvent |  |
| TYQHSVSSL [FAM83B-derived peptide F305_9] | ≥ 1.5 ratio to solvent | 1.1 ratio to solvent | 2.4 ratio to solvent |  |
